The results in this text go back to paper doi:10.1101/2021.05.23.445348.

pKd: −log10 of the molar value.

In the experiment the target is SARS-CoV-2 spike receptor binding domain, wild type (SARS-CoV-2) (UniProt P0DTC2). In words: ITC. (Isothermal titration calorimetry measures the heat released or taken up as one component is titrated into another.)

What is called pKd is the Kd on a negative log10 scale, so that one unit is a factor of ten. A low value points to a high Kd. The stoichiometry N is the number of molecules, sites or subunits per partner or assembly. Consider “CC12.1 single chain variable fragment (scFv)”, for which the pKd is 7.55, the dH came to 4.8 kcal/mol and the stoichiometry N stood at 1.
